Measurements from patent US20110212091A1.

Assays:
[1] = target: Recombinant human FGFR4-Fc (R&D Systems Cat # 685-FR) (human) (UniProt P22455); experiment: competition ELISA: FGFR4-Fc preincubated with soluble FGF1, binding to immobilized FGF2-heparin
[2] = target: Recombinant human FGFR4-Fc (R&D Systems Cat # 685-FR) (human) (UniProt P22455); experiment: competition ELISA: FGFR4-Fc preincubated with soluble FGF2, binding to immobilized FGF2-heparin

IC50 [1] | IC50 [2] | Substance
0.733 nM |  | FGF1 (soluble) (from UniProt P05230 16-155) (ligand)
 | 0.691 nM | recombinant human FGF2 (R&D Systems, Cat# 233-FB) (from UniProt P09038 143-288) (ligand)
